Results as given in US6887468B1 (Board of Regents, The University of Texas System, priority 1999, dated 2005).

Tests used:
[1] = GUS enzymatic activity (cleavage of substrate); format: biochemical
Description: The 6-His GUS was pure based upon SDS-PAGE, where it ran as a single band of 75 kDa band. On gel filtration columns, the 6-His GUS runs as a tetramer of about 300 kDa.
The biological activity of each component of the 2C3-GUS conjugate was confirmed.

[2] = test system: Bend3 mouse endothelial cells; ABAE, bovine aortic endothelial cells; HUVEC, human umbilical vein endothelial cells; test: Direct binding of biotinylated 6-His endostatin to endothelial cells in vitro; format: cell-based; details: three endothelial cell types
Description: Binding was detected using streptavidin-peroxidase in conjunction with O-phenylenediamine (OPD) and the absorbance read at 490 nm.

B1: 6-His GUS: E. coli β-glucuronidase with N-terminal 6×histidine tag (protein, UniProt P05804 1-603, looked up)
Beta-glucuronidase: MLRPVETPTREIKKLDGLWAFSLDRENCGIDQRWWESALQESRAIAVPGSFNDQFADADIRNYAGNVWYQREVFIPKGWAGQRIVLRFDAVTHYGKVWVNNQEVMEHQGGYTPFEADVTPYVIAGKSVRITVCVNNELNWQTIPPGMVITDENGKKKQSYFHDFFNYAGIHRSVMLYTTPNTWVDDITVVTHVAQDCNHASVDWQVVANGDVSVELRDADQQVVATGQGTSGTLQVVNPHLWQPGEGYLYELCVTAKSQTECDIYPLRVGIRSVAVKGEQFLINHKPFYFTGFGRHEDADLRGKGFDNVLMVHDHALMDWIGANSYRTSHYPYAEEMLDWADEHGIVVIDETAAVGFNLSLGIGFEAGNKPKELYSEEAVNGETQQAHLQAIKELIARDKNHPSVVMWSIANEPDTRPQGAREYFAPLAEATRKLDPTRPITCVNVMFCDAHTDTISDLFDVLCLNRYYGWYVQSGDLETAEKVLEKELLAWQEKLHQPIIITEYGVDTLAGLHSMYTDMWSEEYQCAWLDMYHRVFDRVSAVVGEQVWNFADFATSQGILRVGGNKKGIFTRDRKPKSAAFLLQKRWTGMNFGEKPQQGGKQ
modifications: His6 tag
[1]
  Enzymatic activity of GUS: enzymatically active

B2: (Biotinylated 6-His) endostatin: mouse endostatin with N-terminal 6×histidine tag expressed in E. coli, biotinylated (protein, UniProt P39060 1572-1754, looked up)
Endostatin: HSHRDFQPVLHLVALNSPLSGGMRGIRGADFQCFQQARAVGLAGTFRAFLSSRLQDLYSIVRRADRAAVPIVNLKDELLFPSWEALFSGSEGPLKPGARIFSFDGKDVLRHPTWPQKSVWHGSDPNGRRLTESYCETWRTEAPSATGQASSLLGGRLLGQSAASCHHAYIVLCIENSFMTASK
modifications: Endostatin biotin label, His6 tag
[2]
  Binding to endothelial cells in vitro: bound in a saturable fashion
